Measurements as given in article PMC10159003.
Values joined by “and” are separate entries in the source; they are usually repeats but may differ in a detail not shown here. Equal values may be shown once. Read-outs that look alike come from different tables or passages of the source.

Tests used:
[1] = target: full-length RtcR (S. Typhimurium); experiment: SEC
[2] = target: full-length RtcR (S. Typhimurium); experiment: SEC; remark: listed apart in the source

With full-length RtcR (natural protein) the stoichiometry N [1] was 2 and 6 and the stoichiometry N [2] was 2 and 6.
